Measured values published in PMC12431652.

Molecular target: Tripartite Motif Protein 28 (TRIM28), endogenous in HEK293T cells (UniProt Q13263)
Experiment: co-immunoprecipitation (anti-FLAG IP, western blot band quantification)
Conditions: for percent of parent (rel. (PIV2-V = 100)): HEK293T cells transfected for 24 hours, n = 3, parent: 100, read off a plot

Sequence of UniProt Q13263 (Q13263 whole entry): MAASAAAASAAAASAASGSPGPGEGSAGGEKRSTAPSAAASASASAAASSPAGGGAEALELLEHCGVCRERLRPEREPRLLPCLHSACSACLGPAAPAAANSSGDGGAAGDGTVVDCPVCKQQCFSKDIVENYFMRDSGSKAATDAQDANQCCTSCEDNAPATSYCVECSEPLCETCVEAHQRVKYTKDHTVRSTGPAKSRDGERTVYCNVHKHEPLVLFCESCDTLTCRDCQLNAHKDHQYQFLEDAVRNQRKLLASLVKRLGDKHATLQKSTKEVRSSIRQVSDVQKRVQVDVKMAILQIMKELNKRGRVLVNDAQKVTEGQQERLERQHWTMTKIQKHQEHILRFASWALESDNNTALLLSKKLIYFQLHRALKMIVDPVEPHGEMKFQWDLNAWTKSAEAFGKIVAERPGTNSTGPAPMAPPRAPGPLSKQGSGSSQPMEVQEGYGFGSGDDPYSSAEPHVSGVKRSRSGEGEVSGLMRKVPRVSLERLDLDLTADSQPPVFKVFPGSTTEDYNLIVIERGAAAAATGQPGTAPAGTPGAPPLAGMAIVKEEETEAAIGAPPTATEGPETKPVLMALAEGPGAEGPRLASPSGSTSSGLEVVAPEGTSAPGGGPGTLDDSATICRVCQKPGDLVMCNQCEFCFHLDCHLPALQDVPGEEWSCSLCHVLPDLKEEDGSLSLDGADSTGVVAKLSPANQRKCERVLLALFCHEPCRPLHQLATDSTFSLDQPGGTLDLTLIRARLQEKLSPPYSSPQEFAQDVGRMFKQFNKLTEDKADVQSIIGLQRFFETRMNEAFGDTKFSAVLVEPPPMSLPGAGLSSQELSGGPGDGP

Question: How did the percent of parent (rel. (PIV2-V = 100)) turn out when “FLAG-tagged full-length PIV2-V (pCMV7.1_3xFlag) (from UniProt P19847) A181G” was run?
Answer: Its percent of parent (rel. (PIV2-V = 100)) is 110.

Question: “FLAG-tagged full-length PIV2-V (pCMV7.1_3xFlag) (from UniProt P19847) F190T” was tested. Which percent of parent (rel. (PIV2-V = 100)) did it give?
Answer: The percent of parent (rel. (PIV2-V = 100)) was 130.

Question: For “FLAG-tagged full-length PIV2-V (pCMV7.1_3xFlag) (from UniProt P19847) Q186E”, which percent of parent (rel. (PIV2-V = 100)) is on record?
Answer: Its percent of parent (rel. (PIV2-V = 100)) is 130.

Question: Which percent of parent (rel. (PIV2-V = 100)) does the source give for “FLAG-tagged full-length PIV2-V (pCMV7.1_3xFlag) (from UniProt P19847) W178Y” here?
Answer: Its percent of parent (rel. (PIV2-V = 100)) is 50.

Question: With “FLAG-tagged full-length PIV5-V (pCMV7.1_3xFlag) (from UniProt P11207) Y175W” as the substance, how does the percent of parent (rel. (PIV5-V = 100)) (n = 3, parent: 100, read off a plot) read?
Answer: Its percent of parent (rel. (PIV5-V = 100)) is 310.
